Measured values reported in paper PMC7067766, “A receptor for the complement regulator factor H increases transmission of trypanosomes to tsetse flies” (Nature Communications, 2020).

B1: human FH domains 4-5-6 (residues 207-387) (domain or fragment)
chain: not shown
notes: complement factor H, human, domains 4-5-6 (residues 207-387); pDest12; CD33 signal peptide, ORF, C-terminal GSGSGS linker, AviTag and 10xHis; also called human domains 4-5-6; source: G22 CHO cells, secreted, purified (Ni-NTA)
B2: mouse FH domains 4-5-6 (residues 207-387) (domain or fragment, UniProt P06909 207-387, looked up)
chain: EILCTPPRVENGDGINVKPVYKENERYHYKCKHGYVPKERGDAVCTGSGWSSQPFCEEKRCSPPYILNGIYTPHRIIHRSDDEIRYECNYGFYPVTGSTVSKCTPTGWIPVPRCTLKPCEFPQFKYGRLYYEESLRPNFPVSIGNKYSYKCDNGFSPPSGYSWDYLRCTAQGWEPEVPCVR
notes: complement factor H, mouse, domains 4-5-6 (residues 207-387); pDest12; CD33 signal peptide, ORF, C-terminal GSGSGS linker, AviTag and 10xHis; also called mouse domains 4-5-6; source: G22 CHO cells, secreted, purified (Ni-NTA)
B3: C-terminally biotinylated FHR (residues 25-249, AviTag) (receptor)
chain: NDNLEAELEQTKALCEVAKQLRKLPLLTEERRFEAVGALEESKKAAKEGKKAAKRAEAGAVGGTSEQQQAAKRAREAATVAYEASVRAEAAAMEVKRFARALDSFESEYESVFSGLLRGAAEHGGNETIKQLAKECATAVADDVTPEALTRAAHNLRGLYMQDFAEEYLQEANEAANKLEELQKATAETVRAADAADDAKSEAQEEAAQFPEIDDDDSDEDKEDE
modifications: biotin on the C-terminal AviTag
notes: T. brucei FHR, Tb927.5.4020, residues 25-249, synthetic gene optimized for E. coli in pET15b; TEV site after the His tag; GSGSGSS linker between FHR and the AviTag; also called FHR WT; WT FHR; source: E. coli BL21(DE3), purified (Ni-NTA), biotinylated with BirA; not shown: His6, N-terminal, cleaved; AviTag, C-terminal, kept
B4: bovine FH domain 5 (residues 264-323), as used in SPR (domain or fragment, UniProt Q28085 264-323, looked up)
chain: EITCDPPRIPNGVYRPELSKYRGQDKITYECKKGFFPEIRGTDATCTRDGWVPVPRCAWK
notes: complement factor H, bovine, domain 5 (residues 264-323); N-terminal tags, a TEV site and an extra serine-glycine linker before domain 5; also called domain 5 alone; source: G22 CHO cells, secreted, purified (Ni-NTA)
B5: bovine FH domains 4-5-6 (residues 207-385) (domain or fragment, UniProt Q28085 207-385, looked up)
chain: EIFCKTPVILNGQAVLPKATYKANERVQYRCAAGFEYGQRGDTICTKSGWTPAPTCIEITCDPPRIPNGVYRPELSKYRGQDKITYECKKGFFPEIRGTDATCTRDGWVPVPRCAWKPCSYPVIKHGRLYYSYRGYFPARVNQQFVYSCDHHFVPPSQRSWDHLTCTAEGWSPEEPCLR
notes: complement factor H, bovine, domains 4-5-6 (residues 207-385); pDest12; CD33 signal peptide, ORF, C-terminal GSGSGS linker, AviTag and 10xHis; source: G22 CHO cells, secreted, purified (Ni-NTA)

Key:
Settings in all cases: both partners purified
[1] = target: B3; experiment: SPR; biotinylated FHR or mutant 2 on a streptavidin chip, mouse or human FH domains 4-5-6 flowed over; 20 °C, 10 mM HEPES, 150 mM NaCl, 0.005% Tween-20 pH 7.5; steady-state analysis
[2] = target: T1, bovine complement factor H from serum (bovine (endogenous in bovine serum), UniProt Q28085 19-1236); experiment: SPR; biotinylated FHR or mutant on a streptavidin chip (Biacore T-100/T-200), FH proteins flowed over in twofold dilutions; 20 °C, 10 mM HEPES, 150 mM NaCl, 0.005% Tween-20 pH 7.5; kinetic fit: two-state model (bovine FH) or 1:1 model (bovine domains 4-5-6 and 5)
T1 construct: complement factor H, bovine, native serum protein of 145 kDa; also called FH; bovine FH; source: endogenous, bovine serum (Sigma-Aldrich); purified from adult bovine serum (FHR-agarose, eluted with glycine-HCl pH 2.5)
T1 sequence: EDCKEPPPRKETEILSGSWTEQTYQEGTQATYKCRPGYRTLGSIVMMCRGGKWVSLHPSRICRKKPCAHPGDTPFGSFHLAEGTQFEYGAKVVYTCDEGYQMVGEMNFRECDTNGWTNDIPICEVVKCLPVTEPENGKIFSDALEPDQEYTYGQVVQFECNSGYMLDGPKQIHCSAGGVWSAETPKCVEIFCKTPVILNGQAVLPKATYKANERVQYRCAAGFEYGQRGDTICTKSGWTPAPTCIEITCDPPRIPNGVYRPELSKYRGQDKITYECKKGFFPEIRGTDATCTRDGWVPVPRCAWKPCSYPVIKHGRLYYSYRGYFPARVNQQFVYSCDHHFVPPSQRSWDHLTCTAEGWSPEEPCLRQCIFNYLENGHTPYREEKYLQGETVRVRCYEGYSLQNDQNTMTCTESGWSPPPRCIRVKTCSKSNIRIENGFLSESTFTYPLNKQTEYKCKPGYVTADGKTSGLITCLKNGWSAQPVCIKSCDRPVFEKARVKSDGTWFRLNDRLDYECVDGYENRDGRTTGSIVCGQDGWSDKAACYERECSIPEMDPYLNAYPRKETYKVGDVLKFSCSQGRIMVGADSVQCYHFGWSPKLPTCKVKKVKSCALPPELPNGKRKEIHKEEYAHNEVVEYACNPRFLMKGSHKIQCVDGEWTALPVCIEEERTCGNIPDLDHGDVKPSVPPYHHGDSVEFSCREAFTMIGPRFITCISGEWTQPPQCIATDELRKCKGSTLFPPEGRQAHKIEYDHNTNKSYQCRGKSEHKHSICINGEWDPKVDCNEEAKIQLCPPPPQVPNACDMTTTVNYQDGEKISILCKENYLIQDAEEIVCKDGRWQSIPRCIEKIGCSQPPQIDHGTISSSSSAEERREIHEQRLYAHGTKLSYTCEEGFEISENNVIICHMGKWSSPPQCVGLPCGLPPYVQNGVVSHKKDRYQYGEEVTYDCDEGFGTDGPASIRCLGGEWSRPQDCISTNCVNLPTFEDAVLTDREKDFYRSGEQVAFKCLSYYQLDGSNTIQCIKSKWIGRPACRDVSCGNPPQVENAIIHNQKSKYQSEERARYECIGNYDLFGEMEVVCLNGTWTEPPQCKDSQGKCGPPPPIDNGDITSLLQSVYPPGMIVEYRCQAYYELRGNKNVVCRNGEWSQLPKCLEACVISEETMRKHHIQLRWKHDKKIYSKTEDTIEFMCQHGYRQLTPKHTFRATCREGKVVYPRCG

[3] = target: T2, recombinant bovine FH, complete (residues 18-1236) (bovine, UniProt Q28085 18-1236); experiment: as above
T2 construct: complement factor H, bovine, complete (residues 18-1236); pDest12; CD33 signal peptide, then 10xHis, AviTag, GSGSGS linker and a TEV site before the ORF; also called full-length bovine FH; recombinant FH; source: G22 CHO cells, secreted, purified (Ni-NTA)
T2 sequence (looked up): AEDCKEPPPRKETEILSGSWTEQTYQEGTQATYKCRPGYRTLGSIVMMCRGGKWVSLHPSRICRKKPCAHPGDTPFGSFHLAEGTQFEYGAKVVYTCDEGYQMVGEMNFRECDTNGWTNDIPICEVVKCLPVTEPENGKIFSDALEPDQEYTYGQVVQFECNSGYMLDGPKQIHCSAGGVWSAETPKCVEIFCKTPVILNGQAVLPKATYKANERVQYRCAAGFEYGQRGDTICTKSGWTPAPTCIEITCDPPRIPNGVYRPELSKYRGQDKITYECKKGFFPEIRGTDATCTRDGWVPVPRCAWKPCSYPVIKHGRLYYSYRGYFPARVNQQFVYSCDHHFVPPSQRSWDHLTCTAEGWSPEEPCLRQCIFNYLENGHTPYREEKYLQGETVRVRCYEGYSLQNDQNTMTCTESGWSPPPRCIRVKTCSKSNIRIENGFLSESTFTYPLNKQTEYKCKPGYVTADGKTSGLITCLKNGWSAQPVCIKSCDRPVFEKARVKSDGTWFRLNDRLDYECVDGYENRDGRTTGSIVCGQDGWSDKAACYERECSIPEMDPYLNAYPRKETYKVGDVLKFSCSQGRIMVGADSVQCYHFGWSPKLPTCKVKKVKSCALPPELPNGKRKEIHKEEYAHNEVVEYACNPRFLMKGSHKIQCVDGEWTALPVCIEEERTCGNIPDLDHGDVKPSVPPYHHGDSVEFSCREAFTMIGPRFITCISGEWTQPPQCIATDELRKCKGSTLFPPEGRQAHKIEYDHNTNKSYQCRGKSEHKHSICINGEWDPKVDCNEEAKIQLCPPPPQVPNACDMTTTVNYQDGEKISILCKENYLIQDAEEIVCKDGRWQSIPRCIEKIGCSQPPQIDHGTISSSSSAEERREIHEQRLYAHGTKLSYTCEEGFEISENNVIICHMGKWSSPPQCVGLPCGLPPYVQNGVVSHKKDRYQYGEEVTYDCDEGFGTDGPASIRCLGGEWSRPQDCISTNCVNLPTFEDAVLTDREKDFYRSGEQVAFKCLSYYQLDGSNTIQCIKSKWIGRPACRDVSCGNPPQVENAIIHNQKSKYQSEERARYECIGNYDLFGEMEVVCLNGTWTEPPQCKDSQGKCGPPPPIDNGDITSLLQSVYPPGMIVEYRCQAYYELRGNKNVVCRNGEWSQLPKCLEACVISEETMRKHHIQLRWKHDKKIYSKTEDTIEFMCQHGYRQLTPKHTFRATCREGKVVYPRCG

[4] = target: B3; experiment: as above

| Binder | Kd [1] [nM] | Kd [4] [nM] | further results |
| --- | --- | --- | --- |
| B1 | 8700 | – | – |
| B2 | 12000 | – | – |
| B3 | – | – | Kd [2]: 153 nM; Kd [3]: 114 nM |
| B4 | – | 562 | – |
| B5 | – | 167 | – |
